Measurements as given in patent US20100183623A1 (INHIBITEX, published 2010).

T1: SdrF N1N2N3 (52-679), His-tagged recombinant A domain of S. epidermidis SdrF (Staphylococcus epidermidis (K28 genomic …, UniProt Q9KI14 53-678))
T1 construct: expressed in E. coli; also called SdrF A domain
T1 sequence: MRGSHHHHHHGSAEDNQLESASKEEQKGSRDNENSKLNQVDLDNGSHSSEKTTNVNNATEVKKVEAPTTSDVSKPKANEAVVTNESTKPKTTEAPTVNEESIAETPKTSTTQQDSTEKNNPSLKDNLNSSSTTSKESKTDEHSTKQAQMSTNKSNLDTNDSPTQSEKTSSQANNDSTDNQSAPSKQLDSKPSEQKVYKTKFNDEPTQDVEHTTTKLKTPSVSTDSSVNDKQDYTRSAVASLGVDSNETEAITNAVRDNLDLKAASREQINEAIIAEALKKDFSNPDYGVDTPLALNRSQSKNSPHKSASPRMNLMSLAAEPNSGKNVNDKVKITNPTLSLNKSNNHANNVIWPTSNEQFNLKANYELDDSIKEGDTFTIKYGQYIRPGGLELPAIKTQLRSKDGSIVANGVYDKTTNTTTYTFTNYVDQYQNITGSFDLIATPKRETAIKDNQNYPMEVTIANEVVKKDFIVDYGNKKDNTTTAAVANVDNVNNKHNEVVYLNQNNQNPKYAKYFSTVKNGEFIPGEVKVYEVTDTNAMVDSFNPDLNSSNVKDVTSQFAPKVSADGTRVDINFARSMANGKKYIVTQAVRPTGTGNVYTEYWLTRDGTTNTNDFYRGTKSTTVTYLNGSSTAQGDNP

T2: SdrF N2N3 (361-679), His-tagged recombinant fragment (Staphylococcus epidermidis (K28 genomic …, UniProt Q9KI14 361-678))
T2 construct: expressed in E. coli
T2 sequence: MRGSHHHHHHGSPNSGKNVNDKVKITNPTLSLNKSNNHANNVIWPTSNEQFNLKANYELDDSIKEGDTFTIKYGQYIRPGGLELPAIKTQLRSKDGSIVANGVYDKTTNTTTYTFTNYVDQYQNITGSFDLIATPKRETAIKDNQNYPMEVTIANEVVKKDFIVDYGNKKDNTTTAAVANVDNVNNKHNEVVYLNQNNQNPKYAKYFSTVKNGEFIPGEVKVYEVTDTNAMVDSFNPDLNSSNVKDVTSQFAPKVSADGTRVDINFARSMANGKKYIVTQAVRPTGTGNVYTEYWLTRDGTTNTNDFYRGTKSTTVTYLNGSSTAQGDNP

T3: SdrF N3 (517-679), His-tagged recombinant fragment (Staphylococcus epidermidis (K28 genomic …, UniProt Q9KI14 517-678))
T3 construct: expressed in E. coli
T3 sequence: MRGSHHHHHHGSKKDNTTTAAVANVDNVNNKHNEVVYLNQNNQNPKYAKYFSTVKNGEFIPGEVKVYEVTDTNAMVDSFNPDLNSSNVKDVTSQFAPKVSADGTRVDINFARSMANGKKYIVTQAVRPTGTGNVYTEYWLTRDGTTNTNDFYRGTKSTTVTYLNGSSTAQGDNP

T4: SdrF N2 (361-517), His-tagged recombinant fragment (Staphylococcus epidermidis (K28 genomic …, UniProt Q8CMP4 361-517))
T4 construct: expressed in E. coli
T4 sequence: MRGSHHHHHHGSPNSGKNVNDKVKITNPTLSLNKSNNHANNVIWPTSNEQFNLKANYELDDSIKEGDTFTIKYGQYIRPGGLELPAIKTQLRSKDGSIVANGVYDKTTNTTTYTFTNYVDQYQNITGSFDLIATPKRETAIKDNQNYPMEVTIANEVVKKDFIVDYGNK


Key:
[1] = target: T1, SdrF N1N2N3 (52-679), His-tagged …; experiment: Biacore 3000, mAb captured on anti-F(ab)2 chip, SdrF (N1N2N3) in flow
[2] = target: T1, SdrF N1N2N3 (52-679), His-tagged …; experiment: Biacore 3000, ligand capture of mAb, SdrF (N1N2N3) in flow
[3] = target: T1, SdrF N1N2N3 (52-679), His-tagged …; experiment: ELISA, plate coated with SdrF N1N2N3, hybridoma supernatant
[4] = target: T2, SdrF N2N3 (361-679), His-tagged …; experiment: ELISA, plate coated with SdrF N2N3, hybridoma supernatant
[5] = target: T1, SdrF N1N2N3 (52-679), His-tagged …; experiment: Biacore, mAb captured via RAM-Fc, SdrF injected
[6] = target: T3, SdrF N3 (517-679), His-tagged …; experiment: ELISA, plate coated with SdrF N3
[7] = target: T4, SdrF N2 (361-517), His-tagged …; experiment: ELISA, plate coated with SdrF N2

Binder	Ka [1] [M⁻¹]	Kd [1] [nM]	koff [1] [s⁻¹]	kon [1] [M⁻¹ s⁻¹]	Ka [2] [M⁻¹]	Kd [2] [nM]	koff [2] [s⁻¹]	kon [2] [M⁻¹ s⁻¹]	ELISA OD405 [3] [OD405]	ELISA OD405 [4] [OD405]	Biacore SdrF bound [5]	binding result [6]	binding result [7]
murine anti-SdrF monoclonal antibody 108-1 (antibody, V domains shown, Mouse hybridoma antibody (Balb/C, fusion F108)) VH: EVQLQQSGAELVKPGASVKLSCTASGFNIKDTYIHWVKQRPEQGLEWIGRIDPANGNTHYDSQFQGKATITADTSSNTAYLQLSSLTSDDTAVYYCTRRVGYAMDYWGQGTSVTVSS VL: DIVMTQSHKFMSTSVGDRVIITCKASQDVNTALAWYQQKPGQSPKLLIYSASYRYTGVPDRFTGSGSGTDFTFTISSVQAEDLAVYYCQQHYSTPPYTFGGGTKLEIK	6.2e+08	1.61	0.000134	82900	6.2e+08	1.6	0.00013	83000	0.89	0.99	146	–	–
murine anti-SdrF monoclonal antibody 108-36 (antibody, V domains shown, Mouse hybridoma antibody (fusion F108)) VH: QVTLRESGPGILQPSQTLSLTCSFSGFSLNTSGMGVTWIRQPSGKGLEWLANIYWDDDKRYNPSLKSRLTISKANSRNQVFLKITSVDTADTATYYCTRPNYLGTVYWYFDVWGAGTMVTVSS VL: QIVLTQSPAIMSASPGEKVTMTCSASSSVSYMYWYQQKPGSSPRVLIYDTSNLASGVPVRFSGSGSGTSYSLTISRMEAEDAATYYCQQWNGYPPTFGAGTKLEVK	4.52e+09	0.221	5.6e-05	232000	4.5e+09	0.22	5.6e-05	230000	0.77	0.72	146	no binding	–
murine anti-SdrF monoclonal antibody 110-15 (antibody, V domains shown, Mouse hybridoma antibody (fusion F110); also called Murine 110-15; 110-15VL-Mouse/110-15VH-Mouse) VH: EVQLVESGGGLVKPGGSLKLSCAASGFAFSSYDMSWVRQTPEKRLEWVAYISSGGGITYYPDTVKGRFTISRDNAKNTLYVQMSSLKSEDTAIYYCTRHDRDSWFAYWGQGTLVTVSA VL: QIVLTQSPAIMSASPGEEGTMTCSASSSVRYMYWYRQKPGSSPRLLIYDTSNLASGVPVRFSGSGSGTSYSLTISRMEAEDAATYYCQQWSSYPPTFGGGTKLEMK	1.29e+09	0.774	0.000164	212000	1.3e+08	0.77	0.00016	210000	0.63	0.7	153	no binding	no binding
Humanized 108-1 (antibody, V domains shown, Humanized (veneered) variable regions spliced into plasmids with 'the appropriate light or heavy chain constant region', expressed in NSO cells) VH: QVQLVQSGAEVVKPGASVKLSCKASGFNIKDTYIHWVKQRPGQGLEWIGRIDPANGNTHYDSQFQGKATITADTSTSTAYLQLSSLRSEDTAVYYCTRRVGYAMDYWGQGTTVTVSS VL: DIVMTQSQKFMSTSVGDRVTITCKASQDVNTALAWYQQKPGQSPKLLIYSASYRYTGVPSRFSGSGSGTDFTFTISSVQAEDLAVYYCQQHYSTPPYTFGGGTKLEIK	–	–	–	–	5.6e+08	1.8	0.00017	94000	–	–	–	–	–
Humanized 110-15 (antibody, V domains shown, Humanized (veneered) variable regions with 'the appropriate light or heavy chain constant region', expressed in NSO cells; also called 110-15VL-Hu/110-15VH-Hu) VH: EVQLVESGGGLVQPGGSLKLSCAASGFAFSSYDMSWVRQTPEKRLEWVAYISSGGGITYYPDTVKGRFTISRDNSKNTLYVQMSSLRAEDTAVYYCTRHDRDSWFAYWGQGTLVTVSS VL: EIVLTQSPGTMSASPGERGTMSCSASSSVRYMYWYRQKPGQSPRLLIYDTSNLASGVPARFSGSGSGTSYSLTISRMEAEDAATYYCQQWSSYPPTFGGGTKLEMK	–	–	–	–	1.4e+09	0.74	0.00013	170000	–	–	–	–	–
Humanized 108-36 (antibody, V domains shown, N-linked carbohydrate chain on the asparagine at position 30 of the variable heavy chain, Humanized (veneered) variable regions with 'the appropriate light or heavy chain constant region', expressed in NSO cells; also called Hu108-36) VH: QVTLRESGPGILKPSQTLSLTCTFSGFSLNTSGMGVTWIRQPSGKGLEWLANIYWDDDKRYNPSLKSRLTISKANSRNQVFLKITSVDPVDTATYYCTRPNYLGTVYWYFDVWGQGTMVTVSS VL: EIVLTQSPATMSASPGERVTMSCSASSSVSYMYWYQQKPGQSPRVLIYDTSNLASGVPSRFSGSGSGTSYSLTISSMEPEDAATYYCQQWNGYPPTFGGGTKLEVK	–	–	–	–	2.2e+09	0.46	6.3e-05	140000	–	–	–	–	–
